Assay results as given in patent US20080166806A1, “Attenuated Effector Ligand” (priority 2007, published 2008).

B1: FasL (protein, UniProt P48023 130-281, looked up)
Tumor necrosis factor ligand …: QIGHPSPPPEKKELRKVAHLTGKSNSRSMPLEWEDTYGIVLLSGVKYKKGGLVINETGLYFVYSKVYFRGQSCNNLPLSHKVYMRNSKYPQDLVMMEGKMMSYCTTGQMWARSSYLGAVFNLTSADHLYVNVSELSLVNFEESQTFFGLYKL
notes: wild-type FasL ligand used as comparator
B2: conjugate: mutated FasL (P206R) conjugated to mouse monoclonal anti-CD20 antibody with SMCC (conjugate, UniProt P48023 130-281, looked up, variant P206R)
Tumor necrosis factor ligand …: QIGHPSPPPEKKELRKVAHLTGKSNSRSMPLEWEDTYGIVLLSGVKYKKGGLVINETGLYFVYSKVYFRGQSCNNLRLSHKVYMRNSKYPQDLVMMEGKMMSYCTTGQMWARSSYLGAVFNLTSADHLYVNVSELSLVNFEESQTFFGLYKL
modifications: conjugated via SMCC to mouse anti-CD20 antibody
B3: FasL (P206R) (protein, UniProt P48023 130-281, looked up, variant P206R)
Tumor necrosis factor ligand …: QIGHPSPPPEKKELRKVAHLTGKSNSRSMPLEWEDTYGIVLLSGVKYKKGGLVINETGLYFVYSKVYFRGQSCNNLRLSHKVYMRNSKYPQDLVMMEGKMMSYCTTGQMWARSSYLGAVFNLTSADHLYVNVSELSLVNFEESQTFFGLYKL

tested on: Burkitt lymphoma cells; assay: Dose response of FasL ligands on Burkitt lymphoma cells; format: cell-based; conditions: dose response over 1 μM to 1 nM, 96 well plate
Experimental: Dose response over a range of 1 μM to 1 nM is determined for each of the ligands.

**Q.** With B1 as the molecule, how does the “rank order of effectiveness” value read?
**A.** rank order of effectiveness is wild-type, conjugate and mutated FasL

**Q.** With B2 as the molecule, how does the “rank order of effectiveness” value read?
**A.** rank order of effectiveness is wild-type, conjugate and mutated FasL

**Q.** How did the “rank order of effectiveness” value turn out when B3 was run?
**A.** rank order of effectiveness is wild-type, conjugate and mutated FasL
